± gives the standard deviation of the averaged measurements.
B1: library; a variant is named by its letters at N, in order (parent)
chain: GCUGUCACCGGUGCUUGGUACGUUAUAUUCAGCCGGUCUGAUGAGUCUNNNNNNAGACGAAACAGC

Key:
(6R,S)-folinic acid [1] = variants of: B1; test: FACS-Seq fitted mean relative fluorescence mCherry/BFP without ligand (log10 relative fluorescence); HEK293T overexpressing SLC46A1; higher = higher reporter protein expression; settings: without (6R,S)-folinic acid; ligand present: no
Summary of the method: (§1)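 Fluorescence values are fitted normal means of bin counts along the mCherry/BFP axis. HEK293T libraries lentivirally carrying the ribozyme switch in an mCherry reporter, with an EF1α-BFP marker, were enriched, exposed to ligand or not for 48 h, and sorted into 6 bins. Genomic DNA per bin was PCR-amplified, barcoded and run on MiSeq. Means of log10(mCherry/BFP) were scaled to five spiked-in control ribozymes.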

(6R,S)-folinic acid [2] = variants of: B1; test: normalized RNA/DNA level without ligand (relative to sTRSVctl = 100) (log10 (% of sTRSVctl)); HEK293T overexpressing SLC46A1; higher = less ribozyme self-cleavage, higher mRNA level; settings: without (6R,S)-folinic acid; ligand present: no
Experimental: (§2)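 Hammerhead (sTRSV) ribozyme switch libraries with a ligand aptamer grafted on stem I and a randomized N4-6 loop II, cloned into the 3' UTR of mCherry and transiently transfected into HEK293T cells; RNA-Seq 72 h post transfection with ligand added 1 h before transfection; RNA read count / plasmid DNA read count normalized to the non-cleaving sTRSVctl (x100), log10; sequences with >100 DNA reads. FACS-Seq: lentiviral library sorted into 6 bins after 48 h ligand, log-normal fit mean of mCherry/BFP scaled to controls. Printed sequences are partial switch sequences.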

(6R,S)-folinic acid [3] = variants of: B1; test: FACS-Seq fitted mean relative fluorescence mCherry/BFP with ligand (log10 relative fluorescence); HEK293T overexpressing SLC46A1; ligand concentration (+) FACS-Seq: 6 mM; higher = higher reporter protein expression; settings: with (6R,S)-folinic acid; ligand present: yes
Summary of the method: as §1

(6R,S)-folinic acid [4] = variants of: B1; test: normalized RNA/DNA level with ligand (relative to sTRSVctl = 100) (log10 (% of sTRSVctl)); HEK293T overexpressing SLC46A1; ligand concentration (+) RNA-Seq: 6 mM; higher = less ribozyme self-cleavage, higher mRNA level; settings: with (6R,S)-folinic acid; ligand present: yes
Experimental: as §2

Variant	FACS-Seq fitted mean (log10) ((6R,S)-folinic acid [1])	normalized RNA/DNA level without ligand (log10) ((6R,S)-folinic acid [2])	FACS-Seq fitted mean (log10) ((6R,S)-folinic acid [3])	normalized RNA/DNA level with ligand (log10) ((6R,S)-folinic acid [4])
GCUGUCACCGGUGCUUGGUACGUUAUAUUCAGCCGGUCUGAUGAGUCUAAGAGGAGACGAAACAGC [AAGAGG]	0.589 ± 0.041	1.843 ± 0.0052	0.632 ± 0.11	1.99 ± 0.021
GCUGUCACCGGUGCUUGGUACGUUAUAUUCAGCCGGUCUGAUGAGUCUGAGAGGAGACGAAACAGC [GAGAGG]	0.109 ± 0.067	1.901 ± 0.012	0.336 ± 0.41	2.03 ± 0.026
GCUGUCACCGGUGCUUGGUACGUUAUAUUCAGCCGGUCUGAUGAGUCUUAGAGGAGACGAAACAGC [UAGAGG]	0.0109 ± 0.02	1.561 ± 0.013	0.481 ± 0.11	1.9 ± 0.052
GCUGUCACCGGUGCUUGGUACGUUAUAUUCAGCCGGUCUGAUGAGUCUAAGAGUAGACGAAACAGC [AAGAGU]	0.413 ± 0.019	1.924 ± 0.0098	0.369 ± 0.0072	2.02 ± 0.047
GCUGUCACCGGUGCUUGGUACGUUAUAUUCAGCCGGUCUGAUGAGUCUGAGAGUAGACGAAACAGC [GAGAGU]	0.347 ± 0.02	1.982 ± 0.013	0.471 ± 0.28	2.014 ± 0.0034
GCUGUCACCGGUGCUUGGUACGUUAUAUUCAGCCGGUCUGAUGAGUCUCAGAUAAGACGAAACAGC [CAGAUA]	0.631 ± 0.27	1.959 ± 0.008	0.663 ± 0.087	1.97 ± 0.027
GCUGUCACCGGUGCUUGGUACGUUAUAUUCAGCCGGUCUGAUGAGUCUAAGAUAAGACGAAACAGC [AAGAUA]	-0.141 ± 0.082	1.959 ± 0.0077	-0.581 ± 0.18	1.994 ± 0.015
GCUGUCACCGGUGCUUGGUACGUUAUAUUCAGCCGGUCUGAUGAGUCUAAGAUCAGACGAAACAGC [AAGAUC]	0.442 ± 0.061	2.04 ± 0.0043	0.504 ± 0.1	2.02 ± 0.029
GCUGUCACCGGUGCUUGGUACGUUAUAUUCAGCCGGUCUGAUGAGUCUAAGAUGAGACGAAACAGC [AAGAUG]	0.3831 ± 0.00047	1.8871 ± 0.00048	0.235 ± 0.29	1.997 ± 0.018
GCUGUCACCGGUGCUUGGUACGUUAUAUUCAGCCGGUCUGAUGAGUCUUAGAUGAGACGAAACAGC [UAGAUG]	0.3 ± 0.084	1.702 ± 0.0024	0.477 ± 0.13	1.97 ± 0.043
GCUGUCACCGGUGCUUGGUACGUUAUAUUCAGCCGGUCUGAUGAGUCUAAGAUUAGACGAAACAGC [AAGAUU]	0.318 ± 0.11	2.007 ± 0.0072	0.312 ± 0.032	2.02 ± 0.022
GCUGUCACCGGUGCUUGGUACGUUAUAUUCAGCCGGUCUGAUGAGUCUAAGCAAAGACGAAACAGC [AAGCAA]	0.352 ± 0.078	1.964 ± 0.015	0.361 ± 0.1	1.994 ± 0.012
GCUGUCACCGGUGCUUGGUACGUUAUAUUCAGCCGGUCUGAUGAGUCUGAGCACAGACGAAACAGC [GAGCAC]	0.00982 ± 0.061	2.002 ± 0.02	-0.159 ± 0.38	2.042 ± 0.0057
GCUGUCACCGGUGCUUGGUACGUUAUAUUCAGCCGGUCUGAUGAGUCUGAGCAGAGACGAAACAGC [GAGCAG]	0.523 ± 0.06	1.96 ± 0.004	0.688 ± 0.3	2.02 ± 0.058
GCUGUCACCGGUGCUUGGUACGUUAUAUUCAGCCGGUCUGAUGAGUCUUAGCAGAGACGAAACAGC [UAGCAG]	0.207 ± 0.14	1.755 ± 0.0028	0.401 ± 0.18	1.957 ± 0.019
GCUGUCACCGGUGCUUGGUACGUUAUAUUCAGCCGGUCUGAUGAGUCUCAGCAUAGACGAAACAGC [CAGCAU]	0.411 ± 0.13	1.96 ± 0.014	0.546 ± 0.21	2.01 ± 0.027
GCUGUCACCGGUGCUUGGUACGUUAUAUUCAGCCGGUCUGAUGAGUCUAAGCAUAGACGAAACAGC [AAGCAU]	0.218 ± 0.067	1.953 ± 0.019	0.102 ± 0.024	2.01 ± 0.039
GCUGUCACCGGUGCUUGGUACGUUAUAUUCAGCCGGUCUGAUGAGUCUGAGCAUAGACGAAACAGC [GAGCAU]	0.407 ± 0.06	1.979 ± 0.015	0.546 ± 0.41	2.016 ± 0.015
GCUGUCACCGGUGCUUGGUACGUUAUAUUCAGCCGGUCUGAUGAGUCUUAGCAUAGACGAAACAGC [UAGCAU]	0.36 ± 0.07	1.942 ± 0.0083	0.328 ± 0.2	2 ± 0.042
GCUGUCACCGGUGCUUGGUACGUUAUAUUCAGCCGGUCUGAUGAGUCUGAGCCAAGACGAAACAGC [GAGCCA]	0.191 ± 0.0078	2.023 ± 0.02	0.281 ± 0.24	2.02 ± 0.047
GCUGUCACCGGUGCUUGGUACGUUAUAUUCAGCCGGUCUGAUGAGUCUGAGCCGAGACGAAACAGC [GAGCCG]	0.537 ± 0.069	2.047 ± 0.0093	0.419 ± 0.15	2.03 ± 0.05
